Results: patent US20030124602A1 (Novartis, published 2003)

B1: Gal4-AD-CTMP fusion protein encoded by pGADGH.CTMP (CTMPL fused to the GAL4 transcriptional activation domain) (other, not shown: small tags and cut ends)
chain: NSARARASAAPRPGAMLRSCAARLRTLGALCRPPVGRRLPGSEPRPELRSFSSEEVILKDCSVPNPSWNKDLRLLFDQFMKKCEDGSWKRLPSYKRTPTEWIQDFKTHFLDPKLMKEEQMSQAQLFTRSFDDGLGFEYVMFYNDIEKRMVCLFQGGPYLEGPPGFIHGGAIATMIDATVGMCAMMAGGIVMTANLNINYKRPIPLCSVVMINSQLDKVEGRKFFVSCNVQSVDEKTLYSEATSLFIKLNPAKSLT
notes: Yeast two-hybrid prey recovered from a HeLa cDNA library; also called this clone
B2: GAL4 DNA binding domain fusion of human PKB alpha amino acids 411-480 (pGBT-CT) (other, yeast;human, UniProt P04386 1-147, looked up)
chain: MKLLSSIEQACDICRLKKLKCSKEKPKCAKCLKNNWECRYSPKTKRSPLTRAHLTEVESRLERLEQLFLLIFPREDLDMILKMDSLQDIKALLTGLFVQDNVNKDAVTDRLASVETDMPLTLRQHRISATSSSEESSNKGQRQLTVSIVWQHVYEKKLSPPFKPQVTSETDTRYFDEEFTAQMITITPPDQDDSMECVDSERRPHFPQFSYSASGTA
notes: range 1-147;range 411-480
B3: human Lamin C (control plasmid pLAM5') (other, UniProt P02545-2 66-230, looked up)
chain: SEEVVSREVSGIKAAYEAELGDARKTLDSVAKERARLQLELSKVREEFKELKARNTKKEGDLIAAQARLKDLEALLNSKEAALSTALSEKRTLEGELHDLRGQVAKLEAALGEAKKQLQDEMLRRVDAENRLQTMKEELDFQKNIYSEELRETKRRHETRLVEID
notes: Two-hybrid control protein; Lamin C is an isoform of the LMNA entry

Columns and labels:
[1] = molecular target: T1, GAL4 DNA binding domain fusion of human PKB alpha amino acids 1-480 (pGBT-PH-KIN-CT, full-length PKB) (yeast; human, UniProt P04386 1-147; P31749 1-480); test: yeast two-hybrid, His auxotrophy and lacZ reporters
T1 construct: range 1-147;range 1-480

[2] = molecular target: T2, GAL4 DNA binding domain fusion of human PKB alpha amino acids 147-480 (pGBT-KIN-CT) (yeast; human, UniProt P04386 1-147; P31749 147-480); test: as above
T2 construct: range 1-147;range 147-480; Bait of the library screen; also called deltaPH

[3] = molecular target: B1; test: as above
[4] = molecular target: T1, GAL4 DNA binding domain fusion of human …; test: yeast two-hybrid
[5] = molecular target: B2; test: yeast two-hybrid
[6] = molecular target: T2, GAL4 DNA binding domain fusion of human …; test: yeast two-hybrid

Question: Does B1 bind [1]?
Answer: binds

Question: Does B1 bind [2]?
Answer: binds

Question: Does B2 bind [3]?
Answer: binds

Question: Does B3 bind [4]?
Answer: no binding

Question: Does B3 bind [5]?
Answer: no binding

Question: Does B3 bind [6]?
Answer: no binding
